Reference: patent US20080044436A1, “Method for Screening and Compositions for Treating Cancers” (priority 2004, published 2008)

Target: T1, Sp1 (Homo sapiens, UniProt P08047)
T1 construct: made in house
Experiment: GST pull-down, TReP-132 and Sp1
Assay type: binding
Conditions: GST pull-down with 35S-Sp1, vs GST alone
Procedure: FIG. 13D: GST-TReP-132 proteins were incubated with ^35-[S]-Sp1 and immobilized on a glutathione-Sepharose column. Specific interactions were analyzed by comparison with the results obtained by incubating GST alone with ^35-[S]-Sp1. Sp1 input: 1/10th of radiolabelled Sp1 level used in the incubations.
In order to evaluate the interaction of TReP-132, Sp1, ER and PR, the wt and mutant GST-TReP-132 fusion proteins were expressed, then immobilized on glutathione-Sepharose as described (Frangioni and Neel, 1993; Monte et al., 1998). The ^35S-[Sp1], ^35S-[ER] and ^35S-[PR-B] proteins were synthesized in vitro using a rabbit reticulocyte lysate and T7 RNA polymerase system as directed by the manufacturer (Promega Corporation, Madison, Wis.). Proteins which bound, then detached from the Sepharose after being heated to boiling in SDS buffer were then separated on a 10% SDS-PAGE gel. The gels were stained with Coomassie blue, dried and autoradiographed.

T1 sequence (P08047 whole entry): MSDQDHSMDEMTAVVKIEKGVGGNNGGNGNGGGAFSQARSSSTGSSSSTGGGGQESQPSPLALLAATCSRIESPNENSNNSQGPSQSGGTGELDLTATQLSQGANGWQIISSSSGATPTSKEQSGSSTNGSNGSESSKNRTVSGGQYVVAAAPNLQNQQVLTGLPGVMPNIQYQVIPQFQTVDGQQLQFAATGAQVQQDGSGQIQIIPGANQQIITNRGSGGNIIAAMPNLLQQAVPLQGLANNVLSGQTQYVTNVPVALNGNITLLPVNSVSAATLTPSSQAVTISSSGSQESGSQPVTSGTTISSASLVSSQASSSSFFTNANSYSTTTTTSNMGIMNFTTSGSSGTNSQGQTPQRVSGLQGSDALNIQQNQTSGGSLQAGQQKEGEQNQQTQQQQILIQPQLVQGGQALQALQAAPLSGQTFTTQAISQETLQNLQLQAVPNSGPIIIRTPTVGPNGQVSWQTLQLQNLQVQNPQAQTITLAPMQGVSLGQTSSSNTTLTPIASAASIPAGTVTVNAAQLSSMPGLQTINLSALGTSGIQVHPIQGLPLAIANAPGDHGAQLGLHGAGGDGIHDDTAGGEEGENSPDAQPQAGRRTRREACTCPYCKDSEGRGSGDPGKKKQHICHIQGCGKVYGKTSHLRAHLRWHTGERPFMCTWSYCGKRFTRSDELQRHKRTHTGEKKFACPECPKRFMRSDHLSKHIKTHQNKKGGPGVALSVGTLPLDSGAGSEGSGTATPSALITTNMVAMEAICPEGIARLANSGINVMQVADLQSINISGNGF

interaction with Sp1: protein/protein itneraction was observed
B1: GST-TReP-132: in-frame fusion of the TReP-132 coding region downstream of GST in pGEX-2TK (protein)
chain: MGDQQLYKTNHVAHGSENLFYQQPPLGVHSGLNHNYGNAVTGGGMDAPQASPISPHFPQDTRDGLGLPVGSKNLGQMDTSRQGGWGSHAGPGNHVQLRGNLANSNMMWGAPAQAEPTDGYQYTYSQASEIRTQKLTSGVLHKLDSFTQVFANQNLRIQVNNMAQVLHTQSAVMDGAPDSALRQLLSQKPMEPPAPAIPSRYQQVPQQPHPGFTGGLSKPALQVGQHPTQGHLYYDYQQPLAQVPVQGGQPLQAPQMLSQHMQQMQQHQYYPPQQQQQAGQQRISMQEIQTQPQQIRPSQPQPPPQQQQPQQLQLQQRQGSMQIPQYYQPQPMMQHLQEQQQQQMHLQPPSYHRDPHQYTPEQAHTVQLIPLGSMSQYYYQEPQQPYSHPLYQQSHLSQHQQREDSQLKTYSSDRQAQAMLSSHGDLGPPDTGMGDPASSDLTRVSSTLPHRPLLSPSGIHLNNMGPQHQQLSPSAMWPQMHLPDGRAQPGSPESSGQPKGAFGEQFDAKNKLTCSICLKEFKNLPALNGHMRSHGGMRASPNLKQEEGEKVLPPQPQPPLPPPPPPPPPPQLPPEAESLTPMVMPVSVPVKLLPPKPSSQGFTNSTVAAPSARDKPASSMSDDEMPVLEIPRKHQPSVPKAEEPLKTVQEKKKFRHRPEPLFIPPPPSYNPNPAASYSGATLYQSQLRSPRVLGDHLLLDPTHELPPYTPPPMLSPVRQGSGLFSNVLISGHGPGAHPQLPLTPLTPTPRVLLCRSNSIDGSNVTVTPGPGEQTVDVEPRINIGLRFQAEIPELQDISALAQDTHKATLVWKPWPELENHDLQQRVENLLNLCCSSALPGGGTNSEFALHSLFEAKGDVMVALEMLLLRKPVRLKCHPLANYHYAGSDKWTSLERKLFNKALATYSKDFIFVQKMVKSKTVAQCVEYYYTWKKIMRLGRKHRTRLAEIIDDCVTSEEEEELEEEEEEDPEEDRKSTKEEESEVPKSPEPPPVPVLAPTEGPPLQALGQPSGSFICEMPNCGAVFSSRQALNGHARIHGGTNQVTKARGAIPSGKQKPGGTQSGYCSVKSSPSHSTTSGETDPTTIFPCKECGKVFFKIKSRNAHMKTHRQQEEQQRQKAQKAAFAAEMAATIERTTGPVGAPGLLPLDQLSLIKPIKDVDILDDDVVQQLGGVMEEAEVVDTDLLLDDQDSVLLQGDAEL
modifications: left off: a dimerising Fc or GST; large carriers; small tags and cut ends
notes: in-frame fusion of the TReP-132 coding region downstream of GST in pGEX-2TK
